Laboratory results published in paper doi:10.1101/2024.01.16.575974, “Structural insights into peptidoglycan hydrolysis by the FtsEX system in Escherichia coli during cell division” (bioRxiv, 2024).
Positions count from the first letter of the chain named. Numbers in names are those of the source.

T1: Escherichia coli FtsEX complex (wild type) in peptidiscs (Escherichia coli (str. K-12, MG1655), UniProt P0A9R7 1-222; P0AC30 1-352)
T1 sequence (looked up) 1: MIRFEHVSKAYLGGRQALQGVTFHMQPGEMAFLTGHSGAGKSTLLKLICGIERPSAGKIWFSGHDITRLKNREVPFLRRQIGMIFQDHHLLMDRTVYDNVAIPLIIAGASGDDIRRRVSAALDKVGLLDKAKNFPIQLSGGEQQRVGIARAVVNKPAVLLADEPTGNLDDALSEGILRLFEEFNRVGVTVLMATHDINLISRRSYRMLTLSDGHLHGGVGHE
T1 sequence (looked up) 2: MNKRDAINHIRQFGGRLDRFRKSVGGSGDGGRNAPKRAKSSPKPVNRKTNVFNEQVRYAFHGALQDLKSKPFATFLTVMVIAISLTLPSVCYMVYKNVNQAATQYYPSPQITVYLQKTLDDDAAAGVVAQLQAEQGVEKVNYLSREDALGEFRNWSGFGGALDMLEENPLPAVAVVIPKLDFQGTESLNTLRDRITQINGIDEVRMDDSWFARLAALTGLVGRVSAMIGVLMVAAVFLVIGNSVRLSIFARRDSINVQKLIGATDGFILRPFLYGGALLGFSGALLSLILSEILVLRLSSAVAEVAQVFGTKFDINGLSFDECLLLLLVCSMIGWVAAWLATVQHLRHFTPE

B1: Escherichia coli FtsX, full length (natural protein, Escherichia coli (str. K-12, MG1655), UniProt P0AC30 1-352, looked up)
chain: T1 sequence (looked up) 2
notes: FtsX, Escherichia coli str; K-12 MG1655, full length; residues 1-52 not resolved in the maps; Two copies stand in the FtsEX complex; also called EcoFtsX; TMD
B2: Escherichia coli FtsE E163Q mutant, His-tagged (natural protein, Escherichia coli (str. K-12, MG1655), UniProt P0A9R7 1-222, looked up)
chain: T1 sequence (looked up) 1 with E163Q
notes: FtsE, Escherichia coli str; K-12 MG1655, full length, with E163Q (cannot hydrolyse ATP); Made with the QuikChange kit on pTD68 [PT7::his6-FtsEX]; also called FtsE mutant (E163Q); ATPase mutant; source: E. coli BL21(DE3) pLysS, co-expressed with FtsX, purified (DDM, TALON, peptidiscs, SEC) with ATP; not shown: His6, N-terminal, kept
B3: Escherichia coli EnvC (EcoEnvCΔ34) (natural protein, UniProt P37690 35-419, looked up)
chain: DERDQLKSIQADIAAKERAVRQKQQQRASLLAQLKKQEEAISEATRKLRETQNTLNQLNKQIDEMNASIAKLEQQKAAQERSLAAQLDAAFRQGEHTGIQLILSGEESQRGQRLQAYFGYLNQARQETIAQLKQTREEVAMQRAELEEKQSEQQTLLYEQRAQQAKLTQALNERKKTLAGLESSIQQGQQQLSELRANESRLRNSIARAEAAAKARAEREAREAQAVRDRQKEATRKGTTYKPTESEKSLMSRTGGLGAPRGQAFWPVRGPTLHRYGEQLQGELRWKGMVIGASEGTEVKAIADGRVILADWLQGYGLVVVVEHGKGDMSLYGYNQSALVSVGSQVRAGQPIALVGSSGGQGRPSLYFEIRRQGQAVNPQPWLGR

What was measured:
[1] = target: the molecule itself; test: cryo-EM structure; WT EcoFtsEX in peptidiscs, 3 mM ATPγS, 2 mM Mg2+, incubated 8 min at 37°C before freezing
[2] = target: B3; test: cryo-EM structure; FtsE^E163QX in peptidiscs incubated with EnvC, 2 mM ATP-Mg2+, 8 min at 37°C before freezing; conditions: both partners purified
[3] = target: the molecule itself; test: as above
[4] = target: T1, Escherichia coli FtsEX complex (wild …); test: cell-based or functional assay

B1: binds [1]; binds [2].

B2: binds [3].

B3 was tested, and the “fold increase of Vmax of ATP hydrolysis with EnvC over FtsEX alone” value [4] was about 2.2 fold.
